Variants at the floor of the assay were thinned out.
B1: TPR 5TU (parent)
chain: GGAUCUUCUCGAUCUAACAAAAAAGACAAAUCUGCCACAAAGCUUGAGAGCAUCUUCGGAUGCAGAGGCGGCAGCCUUCGGUGGCGCGAUAGCGCCAACGUUCUCAACUAUGACACGCAAAACGCGUGCUCCGUUGAAUGGAGUUUAUCAUG

Variants of: B1
Assay: polymerase ribozyme fitness, log enrichment relative to wild type (log ratio); higher = more active; in vitro selection for triplet polymerase activity
Procedure, shortened: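 Fitness measures genotype enrichment against wild-type enrichment on a logarithmic scale, with inverse-variance-weighted averaging of replicates. The logarithm is base 2, and genotypes were kept only with ≥10 input reads and ≥1 read per output in Illumina sequencing. The sequenced libraries came from one triplicate in vitro selection round, including frozen incubation at −7 °C, of PCR-built, transcribed mutant libraries of each subunit of a heterodimeric triplet polymerase ribozyme.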

Variant | polymerase ribozyme fitness (log ratio)
C54U U56C | -0.57
C54U C96U C118U | -0.868
C54U G124C | -0.768
C54G G80U | -3.52
C54A A106C | -2.06
C54G U56A C57A G81U C93U | -0.912
C54A G94U G140A | ≤ -4.2
U55A A91G U134A | -4.01
C54U G65U G81A C93U A97U | ≤ -4.2
U55A C57A | 0.142
U55A C57U | 0.643
C54U C57A C75U A91G | -3.62
U55A A106C C125G | -1.63
C54A C93G U135G | ≤ -4.2
C54U C93G | -3.72
C54U C93U | -1.99
C54U G84A U146G | -1.56
U55A C57U C87G C125A | ≤ -4.2
C54A G58A G94A A98U | -0.552
C54G A66C G70C G100C | ≤ -4.2
C54A C116U U139A | -4.11
C54G G74C G81A G88C | ≤ -4.2
U55A A107G | -3.7
C54U C96A C105G G124U | -3.42

Variant | polymerase ribozyme fitness (log ratio)
U55A A91C | ≤ -4.2
C54A U78G U101G A107G C118A U130A | ≤ -4.2
C54G U101G C118U | -2.4
C54U C87G A142C | ≤ -4.2
C54G U56A C96G U102C G136A U144G | -3.08
U55A C57U C85U A91G G141U | -1.7
C54U U78A G86U U104C C105A U130G C132A G136A | ≤ -4.2
U55A A119G U139G | 0.219
C54U G86U C93A A97U A120G | -1.29
C54U C76A | -0.561
C54U G58C C85A | -2.42
C54A G70U G94A | -4.02
C54U C69A U144C | -3.89
C54U U82C C95A G141U | -2.99
C54G U61C G84U C87U G88A A119U | ≤ -4.2
U55A A66G G92U A119C | ≤ -4.2
C54G A60G G81A C93G C118U | ≤ -4.2
C54A A89U G92C A121U | -3
C54A C85A C105A | ≤ -4.2
C54U A64C U90G U139G G140A | ≤ -4.2
C54U G86A | -1.18
C54U G86U | -1.78
U55A A64C C85U U146G | ≤ -4.2
C54A G88C | -3.99

Variant | polymerase ribozyme fitness (log ratio)
C54G C95U U127G | ≤ -4.2
U55A A60U C118G A119C | -0.427
C54U C57G C87A G128A | ≤ -4.2
C54A C79A C87U U144C A150G U151A | ≤ -4.2
C54U G84A A110U | ≤ -4.2
C54U G83U C85A U90G | ≤ -4.2
C54U G59U G74A | -3.62
C54G A91U | ≤ -4.2
C54G A91G | -4.01
C54A G58C | -1.45
C54A C96G C103U C116A G136U | -4.12
C54G C96G G126A | -2.33
U55A A122G | -0.237
C54U G92C | -1.07
C54G C95A | -1.74
C54G C95U | -2.35
C54A U56A G68U U82G G83C G133C | ≤ -4.2
C54G C79U G94C C96U A150G | ≤ -4.2
U55A A113U A121G U139G G141U U144A | ≤ -4.2
C54U G94C G124A | -1.04
C54G C57U C75A A97U G141C U145G | ≤ -4.2
U55A C57A C95U | -0.372
U55A A121U | -0.372
C54A U55A C103G | ≤ -4.2

Variant | polymerase ribozyme fitness (log ratio)
U55A A106U A107U | -4.11
C54A U101G U134C U139G U144A | -1.85
C54A G92A G126U | -3.3
C54G G58C A122G G124U | -2.2
C54U A64G G68A U77C G83A G88U U90G C132U U139G | ≤ -4.2
C54U C85U C129U | -0.134
C54U A121U | 0.0158
U55A A115G G124U | -0.932
C54G A64G A106U A107C U148A | ≤ -4.2
U55A A64C | ≤ -4.2
C54U A91G G128U C131U | -3.53
U55A A60G | 0.676
U55A A60C | -4.18
C54U A97C | -0.294
C54G A142U | -1.98
C54G C57A G74A A91C C95U C132A | ≤ -4.2
C54A C57G | -3
C54A C79U C93A A113U U127G | ≤ -4.2
C54A C93U | -2.59
C54U C95G | -1.07
C54U C95U | -0.851
C54G G86A A120U | -2.8
C54G U55G | ≤ -4.2
C54G U55A A89U C118G A142C | -3.87

Variant | polymerase ribozyme fitness (log ratio)
C54G C96U A98G | -1.19
U55A C57G C87G C93U U104G | ≤ -4.2
C54G C114U G143C | -4.16
C54U G68C C69G G71U G140A U144G | ≤ -4.2
C54U U56C A73U | -1.06
C54U U130G | -3.73
C54A G136A | -0.852
C54U C105A C131G | ≤ -4.2
C54A C79A G100A | ≤ -4.2
C54A G59U A91G U135A | -3.95
C54U C85A C96U A97C A98G A121U | ≤ -4.2
C54U C75G G80C U82A C87U C99G | ≤ -4.2
C54G C95G G133A | ≤ -4.2
C54U G94A | -0.351
C54U G94C | -1.15
C54U C125G | -1.05
C54U G59C A60G A122U | 0.186
C54A C96G | -1.71
C54A A91U G100A G141C | ≤ -4.2
C54U A91U | ≤ -4.2
C54U A91C | ≤ -4.2
U55A A115U G133U | ≤ -4.2
C54U G84A A97U | -1.27
C54U U61A G84U C108G G140U | ≤ -4.2

Variant | polymerase ribozyme fitness (log ratio)
C54U C75G U78C C79A G80U | ≤ -4.2
U55A C57U A66C G94A A106G G128U G140A | ≤ -4.2
C54G G65U A73U C87A A106U G140A G143A | ≤ -4.2
U55A A60G C76G C87G C96U U139A G140C | ≤ -4.2
C54U U55A C95G C96A | -3.07
U55A A73U C93A A122U | -3.55
C54A C76G A89U G92U U130G C149A U151A | ≤ -4.2
C54G C85U C96G G112C U130A A142G C149A | ≤ -4.2
C54G G84U | -1.6
C54U U148A | -3.74
C54U C99U | -0.322
C54U U82G C95A A119G | -2.04
C54A U55C C79A G86C C103G A147C | ≤ -4.2
C54A G67A G70C C72G A73C G74A C75G C87G C116G | ≤ -4.2
C54U C57U G83C | -1.34
C54U U82A G83A A98G | -1.89
C54G G94U C123U G133C | -2.38
C54U C63A C149U | -1.67
C54U A64U G83A C85A | ≤ -4.2
C54G G59U U135C A138U | ≤ -4.2
C54A G81C | -0.408
U55A A89U U102G | ≤ -4.2
C54U G74C | -3.95
C54U G58C | -0.858

Variant | polymerase ribozyme fitness (log ratio)
C54U G58A | 0.498
C54A U55A U56A C96A G141C | -4.08
C54U G67U G86U C95A | ≤ -4.2
U55A A73G A89G G136A | -0.934
U55A A150C | -3.6
C54A U101A | -2.39
C54G U55A C108G A122U | ≤ -4.2
U55A A147C | -1.3
C54G C96U C123G | -1.53
C54U G59U | 0.271
C54U U56A G81A C95A U101C | -1.35
C54U G141A U151G | ≤ -4.2
C54U U55A C76A A91U C95A C103A C131G A138U | ≤ -4.2
C54G | -1.45
C54U | -0.314
C54U C93U U144C U146G | -3.87
C54U C85G C87G | ≤ -4.2
C54A C85G U102G | ≤ -4.2
C54A U61A G67A C75A G80U C96A | ≤ -4.2
C54A G84A A142C | -4.19
C54A C69U U144C | -3.51
C54U U101G | -0.483
U55A C57A A60G A73U C132U U145G | -2.26

Source: the RNAGym collection of RNA variant scans (doi:10.1073/pnas.2313332121)
